Measurements as given in publication PMC3413700.

Tested on: Irr (Rhodobacter sphaeroides 2.4.1)
Assay: EMSA
Details: Mn2+ favored complex formation (1 mM MnCl2); Mn2+ in Kd assay not stated; EMSA: 20 mM TB pH 7.8, 5% glycerol, 1 mM DTT, 1 ug salmon sperm DNA, 0.1 mg/ml BSA, with or without 1 mM MnCl2, 15 ul, ~3 fmol probe, 30 min at 32 C; 6% PAGE …

Row | Substance | Kd [µM]
1 | mbfA upstream region | 0.8
2 | ccpA upstream region | 0.9
